Reference: the nanobody polyreactivity screen of Harvey et al. (2022)

Assay: yeast display, Sf9 membrane polyspecificity reagent, FACS + sequencing; frameworks hold sequencing errors
Summary of the method: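 Galactose-induced (36–48 hours) yeast carrying a synthetic nanobody display library were exposed to 10% biotinylated, detergent-solubilized Sf9 membrane reagent at 4 °C for 1 hour. FACS followed streptavidin microbead enrichment, using low and high (top ~1%) gates for expression (anti-HA) and reagent binding (streptavidin). Colony PCR, MiSeq 2 × 250 sequencing and CDR-length filtering followed. Labels for polyreactivity reflect the gate of origin.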

Sequence | polyreactivity (PSR sort gate)
QVQLVESGGGLVQAGGSLRLSCAASGFTFFSNAMGWYRQAPGKERELVAAITSSGGSTYADSVKGRFTISRDNAKNTVYLQMNSLKPEDTAVYYCAADAEAPPGGFKEYDYWGHGTQVTVSS | low polyreactivity
QVQLVESGGGLVQAGGSLRLSCAASGFTFFSNAMGWYRQAPGKERELVAAITSSGGSTYADSVKGRFTISRDNAKNTVYLQMNSLKPEDTAVYYCAADAQAPPGGFKEYDYWGQGTQVTVSS | low polyreactivity
QVQLVESGGGLVQAGGSLRLSCAASGFTFFSNAMGWYRQAPGKERELVASITNDGSTDADSVKGRFTISRDNAKNTVYLQMNSLKPEDTAVYYCAADFYLWRLPVYAQRYFVRGDYWGQGTQVTVSS | low polyreactivity
QVQLVESGGGLVQAGGSLRLSCAASGFTFFTYAMGWYRQAPGNERELVAAISSSGDRTYYADSVKGRFTISRDNAKNTVYLQMNSLKPEDTAVYYCAVYKYYHFYYWGQGTQVTVSS | high polyreactivity
QVQLVESGGGLVQAGGSLRLSCAASGFTFFYYVMGWYRQAPGKERELVAAISQHGGSTYYADSVKGRFTISRDNAKNTVYLQMNSLKPEDTAVYYSAASPVVNRRGTYGYWGQGTQVTVSS | high polyreactivity
QVQLVESGGGLVQAGGSLRLSCAASGFTFGAYAMGSYRQAPGKERELVASINWSGGSTYYADSVKGRFTISRDYAMNTVYFQMNRLKPEDTAVYYCAARESYPGYGYDHWGQGTQVTVSS | low polyreactivity
QVQLVESGGGLVQAGGSLRLSCAASGFTFGDYAMGWYRQAHGKERELVAAINGRSGSTYYPDSVNGRFTISRDNAKNTVYLQMNSLKPEDTAVYYCATRWRLPSRSNFDYWGQGTQVTLSS | low polyreactivity
QVQLVESGGGLVQAGGSLRLSCAASGFTFGENAMGWYRQAPGKDRELVAAITSGDGTSYADSVKGRFTISRDNAKNTVYLQMNSLKPEDTAVYSCAADVNYYQHRLYYWGLGTQVTVSS | low polyreactivity
QVQLVESGGGLVQAGGSLRLSCAASGFTFGFNDMGWYRQAPGKERELVAAITIGGTTNYADSVKGRFTISRDNAKNTVYLQMNSLKPEDTAVYSCAADTRVVYDEDYWGQGTQVTVSS | low polyreactivity
QVQLVESGGGLVQAGGSLRLSCAASGFTFGFYVMGWYRQAPGKERELVAAITVRAGSTYYADSVKGRFTISRDNAKNTVYLQMNSLKPEDTAVYYCAADSYRLYSSIAYYGMYSWGQGTQVTVSS | high polyreactivity
QVQLVESGGGLVQAGGSLRLSCAASGFTFGGNVMGWYSQAPGKERELVAAISGAGSKYYADSVKGRFTISRDNAKNTVNLQMNSLKPEDTAVNYCAADDVARYLSGYDYWGQGTQVTVSS | low polyreactivity
QVQLVESGGGLVQAGGSLRLSCAASGFTFGGYAMGWYIQAPGKERELVSAISGSGGRTYYADSVKGRFTISRDNAKNTVYLQMNSLKPEDTAVYYCATDGYWQSNGAFYYVARHGGYCGQGTQVTVSS | low polyreactivity
QVQLVESGGGLVQAGGSLRLSCAASGFTFGHYAMGWYRQAPGKQRELVAAISYSGVRTYYADSVKGRFTISRDNAKNTVYLQMNSLKPEDTAVYYCNKYPAHYQTRRYDYWGQGTQVTVSS | high polyreactivity
QVQLVESGGGLVQAGGSLRLSCAASGFTFGINAMGWSRQAPGKERELVASISSGSSTTYADSVKGRFTISRDNAKNTVYLQMNRLKPEDTAVYYCNARPFHIYWRYDYWGQGTQVTVSS | low polyreactivity
QVQLVESGGGLVQAGGSLRLSCAASGFTFGNYAMGWYRQAPGKERELVAVISYSTGSTYYADSVKGRFTISRDNAKNTVYLQMNSLKPEDTAVYYCAKRYRSYYQGYGYWGQGTQVTVSS | high polyreactivity
QVQLVESGGGLVQAGGSLRLSCAASGFTFGPNTMGWYRPAPGKERELVAAISARGGRTYYADSVKGRFTISRDNAKNTVYLQMNSLKPEDTAVYYCAAPGYVRTGVTYGGYYWGQGTQVTVSS | high polyreactivity
QVQLVESGGGLVQAGGSLRLSCAASGFTFGQYAMGWYRQAPVKERELVAAITGSGGRTYYADSVKGRITISRDTAKNTVYLQMNSLKPEDTGVYYCNARVPLRQYSNYYWGQGTQVTVSS | high polyreactivity
QVQLVESGGGLVQAGGSLRLSCAASGFTFGRNAMGWYRQAHGKERELVASIDWSGGSTYYADSVKGRFTISRDNAKNTFYLQMNTLKPEDTAVYYCAVGPNSVGNRSYGFDYWGQGTQVTLSS | low polyreactivity
QVQLVESGGGLVQAGGSLRLSCAASGFTFGRYAMGWYRPAPGKERELVAAISRSGGRTYYADTVKGRFTISRDNAKNTVYLQMNSLKPEHTAVYYCAAYGGVEDDYWGQGTQVTVSS | low polyreactivity
QVQLVESGGGLVQAGGSLRLSCAASGFTFGRYAMGWYRQAPGKERELVAAITSRGGSTYYADSVKGRFTISRDNAKNTVYLQMNSLKPEDTAVYYCNRDLVDSYGYWGQGTQVTVSS | high polyreactivity
QVQLVESGGGLVQAGGSLRLSCAASGFTFGSNTMGWYRQAPGKERELVAAITTSGDSTYYADSVKGRFTISRDNAKNTVYLQMNCLKPEDTAVYYCAAERRYGRYYRLVRLLGQGTQVTVSS | high polyreactivity

Sequence | polyreactivity (PSR sort gate)
QVQLVESGGGLVQAGGSLRLSCAASGFTFGSYVMGWYRQAPGKERELVADISIRGGSTYYADSVKGRFTISRDNAKNTVYLQMHSLKPEDTAVYDCNADPAFYYWEGIVGGADYDYWGQGTQVTVSS | low polyreactivity
QVQLVESGGGLVQAGGSLRLSCAASGFTFGTYTMGWYRQAPGKERELVAAISGSGGSTYYADSVKGRFTISRDNAKNTDYLQMNSLKPEDTAVYYCAAVGRSKRDGYWGQGTQVTVST | high polyreactivity
QVQLVESGGGLVQAGGSLRLSCAASGFTFGWYAMGWYRPAPGKERELVAAISRSGGSTYYADSVKGRFTISRDTAKNTVYLQMNSLKPEDTAVYYCAATYPQGKYTYGRSYDYWGQGTQVTVSS | high polyreactivity
QVQLVESGGGLVQAGGSLRLSCAASGFTFGWYAMGWYRQAPGKEREFVAAISQTGGSTYYADSVKGRFTISRDNAKNTVYLQMNSLKPEDTAVYYCAAPGKRRGVYYWGQGTQVTVSS | high polyreactivity
QVQLVESGGGLVQAGGSLRLSCAASGFTFGWYAMGWYRQAPGKERELVAAIRSDGSTYYADSVKGRFTISRDNAKNTVYLQMNSLKPEDTAVDYCAAVYYQRGWEFDYWGQGTQVTVSS | low polyreactivity
QVQLVESGGGLVQAGGSLRLSCAASGFTFGWYAMGWYRQAPGKERELVADITYNDASTYYADSVKGRFTISRDNAKNTVYLQMNSLKPEDTAVYYCNAVHRRYLVTHPYDYWGQGTQVTVSS | low polyreactivity
QVQLVESGGGLVQAGGSLRLSCAASGFTFGYNAMGRYRQAPGKERELVAAITSGGSTNYADSVKGRFTISRDNAKNTVYLQMNSLKPEDNAVYYCATGVRPWRKKPVEFYHWGQGTQVTVSS | low polyreactivity
QVQLVESGGGLVQAGGSLRLSCAASGFTFGYNDMGWYRQAPGKERELVAGIRSGDDTNYADSVKGRFTISRDNAKNTVYLQMYSLKPEDTAVYYCAADRTTYTYYLPYDYWGQGTQVTVSS | low polyreactivity
QVQLVESGGGLVQAGGSLRLSCAASGFTFGYYAMGWSRQAPGKESELLATITSSGASTYADSVKGRFTISRDNAKNTVYLQMNSLKPEDTAVYYCAADRLPSYWSWYGYDYWGQGTQVTVSS | high polyreactivity
QVQLVESGGGLVQAGGSLRLSCAASGFTFGYYAMGWYRPAPGKERELVAGISSSGSRTYYADSVKGRFTISRDNAKNTVYLQMNSLKPEDTAVYYCNKYYSGKSYTGEDYWGQGTQVTVSS | high polyreactivity
QVQLVESGGGLVQAGGSLRLSCAASGFTFGYYAMGWYRQAPGKERELVAAISASGASTYYADSVKGRFTISRDNAKNTVYLQMNSLKPEDTAVYYCAARPGQLTSPVTRTRYNYWGQGTQVTVSS | low polyreactivity
QVQLVESGGGLVQAGGSLRLSCAASGFTFGYYAMGWYRQAPGKERELVAAITWSGGRTYYADSVKGRFTISRDNAKNTVYLQMNSLKPEDTAVYYGAVETLWQGSEYWGQGTQVTVSS | low polyreactivity
QVQLVESGGGLVQAGGSLRLSCAASGFTFGYYAMGWYRQAPGKERELVAAITYDGDITYYADSVKGRFTISRDNAKNTVYLQMNSLKPEDTAVYYCAADTVYRSYYWGQGTQVTVSS | low polyreactivity
QVQLVESGGGLVQAGGSLRLSCAASGFTFGYYAMGWYRQAPGKERELVAGITTDGSTNYADSVKGRFTISRDNAKNTVYLQMNSLKPEDTAVYYCAADDLHWLNSKRYRGRDYWGQGTQVTVSS | low polyreactivity
QVQLVESGGGLVQAGGSLRLSCAASGFTFGYYAMGWYRQAPGKERELVATIDRGGGTSYADSVKGRFTISRDNAKNTVYLQMNSLKPEDTAVYYCAAVRQGYVAYYYWGQGTQVTVSS | high polyreactivity
QVQLVESGGGLVQAGGSLRLSCAASGFTFGYYAMGWYRQARGKERELVAAISSRGSGTYYADSVKGRFTISRDNAKNTVYLQMNSLKPEDTAVYYCARPAALLGYWGQGTQVTVSS | low polyreactivity
QVQLVESGGGLVQAGGSLRLSCAASGFTFHKNAMGWYRQAPGKERELVAAISRSGGRTYYADSVKGRFTISRDNAKNTVYLQMNSLKPEDTAVYYCNATPLLWAGYDYWGQGTQVTVSS | high polyreactivity
QVQLVESGGGLVQAGGSLRLSCAASGFTFHVNTMGWYRQAPGKERELVAAISRSGGSTYYADSVKGRFTISRDNAKNTVYLQMNSLKPEDTAVYYCATPSPGYTYDPRTQEENDYWGQGTQVTVSS | low polyreactivity
QVQLVESGGGLVQAGGSLRLSCAASGFTFHWYAMGWYRQAPGKERELVAAISWSGGSTYYADSVKGRFTISRDNAKNTVYLQMNSLKPEYTAVYYCNAGVYWPGEFDYWGQGTQVTVSS | high polyreactivity
QVQLVESGGGLVQAGGSLRLSCAASGFTFHWYAMGWYRQAPGKERELVAAITDTGGSTYYADSVKGRFTISRDNAKNTVYLQMNSLKPEDTAVYYCATRHSKYGYEYDYWGQGTQVTVSS | low polyreactivity
